Holding throughout (test): AVEXIS screen signal:noise (double-corrected)
Experiment [1] deals with T1, ADP144.
T1 chain: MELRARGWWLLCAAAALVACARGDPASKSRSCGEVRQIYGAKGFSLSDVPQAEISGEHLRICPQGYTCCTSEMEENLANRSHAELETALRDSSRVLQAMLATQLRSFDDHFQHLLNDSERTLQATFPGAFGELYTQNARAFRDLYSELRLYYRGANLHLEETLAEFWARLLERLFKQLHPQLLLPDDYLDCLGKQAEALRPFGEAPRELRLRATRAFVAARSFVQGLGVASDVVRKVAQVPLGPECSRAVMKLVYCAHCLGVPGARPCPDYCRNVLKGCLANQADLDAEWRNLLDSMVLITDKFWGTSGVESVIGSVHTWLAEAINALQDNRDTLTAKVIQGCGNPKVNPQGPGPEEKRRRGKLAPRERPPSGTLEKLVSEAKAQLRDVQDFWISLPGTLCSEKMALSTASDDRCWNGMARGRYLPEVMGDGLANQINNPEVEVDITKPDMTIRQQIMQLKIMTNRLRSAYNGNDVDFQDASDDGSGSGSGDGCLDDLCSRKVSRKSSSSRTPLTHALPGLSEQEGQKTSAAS

Experiment [2] concerns the target T2, ADP103.
T2 chain: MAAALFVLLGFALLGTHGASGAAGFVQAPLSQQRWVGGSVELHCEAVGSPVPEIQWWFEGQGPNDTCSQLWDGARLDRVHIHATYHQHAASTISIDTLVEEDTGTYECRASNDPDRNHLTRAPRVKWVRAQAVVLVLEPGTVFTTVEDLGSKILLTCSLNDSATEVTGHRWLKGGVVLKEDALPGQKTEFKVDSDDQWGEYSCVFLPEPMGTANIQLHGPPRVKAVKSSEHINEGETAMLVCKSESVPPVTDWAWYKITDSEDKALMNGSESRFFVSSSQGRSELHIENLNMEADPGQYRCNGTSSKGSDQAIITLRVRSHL

Experiment [3] concerns the target ADP390.
The target of experiment [4] is ADP158.
Experiment [5] deals with T3, ADP366.
T3 chain: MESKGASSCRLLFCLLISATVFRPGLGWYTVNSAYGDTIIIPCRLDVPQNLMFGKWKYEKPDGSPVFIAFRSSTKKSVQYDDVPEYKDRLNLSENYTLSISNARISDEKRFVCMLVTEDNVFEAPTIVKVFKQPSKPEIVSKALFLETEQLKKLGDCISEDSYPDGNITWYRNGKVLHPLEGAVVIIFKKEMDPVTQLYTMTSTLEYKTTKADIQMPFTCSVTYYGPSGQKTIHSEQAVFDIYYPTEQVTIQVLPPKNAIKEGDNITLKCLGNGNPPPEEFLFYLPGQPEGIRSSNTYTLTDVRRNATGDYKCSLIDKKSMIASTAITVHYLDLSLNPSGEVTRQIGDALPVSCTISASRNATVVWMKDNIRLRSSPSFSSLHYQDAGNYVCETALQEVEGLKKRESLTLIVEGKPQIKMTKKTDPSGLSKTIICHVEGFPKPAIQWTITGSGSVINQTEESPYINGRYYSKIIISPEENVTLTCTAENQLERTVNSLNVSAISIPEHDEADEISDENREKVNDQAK

Experiment [6] has as its target ADP323.
The target in experiment [7] is T4, ADP368.
T4 chain: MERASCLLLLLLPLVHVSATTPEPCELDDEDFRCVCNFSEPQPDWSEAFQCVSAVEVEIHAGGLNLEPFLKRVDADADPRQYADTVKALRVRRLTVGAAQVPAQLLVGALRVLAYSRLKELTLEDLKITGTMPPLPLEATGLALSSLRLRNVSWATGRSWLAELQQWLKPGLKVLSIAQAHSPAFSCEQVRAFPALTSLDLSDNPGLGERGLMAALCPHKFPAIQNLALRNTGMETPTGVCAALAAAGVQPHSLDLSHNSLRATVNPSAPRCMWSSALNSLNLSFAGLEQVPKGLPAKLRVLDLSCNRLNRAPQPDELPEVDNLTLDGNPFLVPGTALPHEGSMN

Experiment [8] concerns the target T5, ADP315.
T5 chain: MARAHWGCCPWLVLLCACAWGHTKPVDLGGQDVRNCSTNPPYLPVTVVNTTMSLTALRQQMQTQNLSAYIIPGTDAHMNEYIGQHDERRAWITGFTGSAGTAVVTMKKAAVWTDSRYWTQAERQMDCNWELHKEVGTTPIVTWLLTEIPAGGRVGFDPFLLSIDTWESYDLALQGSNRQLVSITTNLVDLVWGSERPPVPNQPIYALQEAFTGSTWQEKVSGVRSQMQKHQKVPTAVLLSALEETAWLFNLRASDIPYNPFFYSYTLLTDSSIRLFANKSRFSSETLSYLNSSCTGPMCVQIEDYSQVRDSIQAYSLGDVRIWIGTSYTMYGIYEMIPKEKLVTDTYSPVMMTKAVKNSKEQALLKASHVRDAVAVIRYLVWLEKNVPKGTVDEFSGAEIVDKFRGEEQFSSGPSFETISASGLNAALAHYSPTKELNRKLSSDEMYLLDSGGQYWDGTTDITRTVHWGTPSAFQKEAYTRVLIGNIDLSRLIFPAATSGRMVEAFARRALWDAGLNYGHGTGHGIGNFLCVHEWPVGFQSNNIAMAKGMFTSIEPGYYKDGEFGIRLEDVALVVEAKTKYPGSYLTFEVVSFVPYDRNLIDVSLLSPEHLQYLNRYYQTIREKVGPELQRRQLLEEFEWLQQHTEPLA

B1: ADP180 (protein)
chain: RGNQISKCVFYDKRNKDLKQVFYVPTNDVNMYKETIRKLLSREISLLEEPLNENSDSHNMANKKNVANFEEIKKNDENNNRKRKEMEEKLKYIEKYRNYAKGVLKNVEFKCENVDDLKSKVKCNLCVYTEIVNNKHIRQGQIIQIFMNECMYGFYYYDNINQYTQNNEYNNKALKDYNSAQKLDDIYFNIAKDISEGNVNGINFFKQQSSKYHPVCYVTE
modifications: bait human Fc-tagged dimer; N-glycosylation sequons mutated in Plasmodium baits
With B1, the binding score amounted to 20 in experiment [1] and 9.97 in experiment [2].

B2: ADP253 (protein)
chain: ANAFYVDNGQEMLIKEKEHYSSDSEHHKEESASIGNLNVFFPAENYHFSTYMGFDRRSFLPSNEIELEKMIGANFANEVKNYCSRQNVAQKIGDYLNIAFEYSRALEELRSEMILDFNKRKHLTNNADDTILHMIENAEKRKNDPNYKEAYENKDYANNANIFMNEYSNPLSTKYNKILKEYLCHLFVNNPGTKPLERLYYNSLALGELVEPIRNKFKSLASSTIDFNYEIHMASASNIYLLAHFLVLSLAYLSYNEYFTTGTKSFYSLPTILTANSDNSFFMLNEMCNIHYNPNKNFKKDITFIPIESRPKRTTTFYGERRLTCDLLELVLNAIMLININEINNVFSNNNVDGYENSLSFSHNAIRIFSKVCPKINNDNVLKCEFEESSLYNPKIIKNDASEKSSQKNLKKAFDLLRTYAEIEGHSAEGSTSPYYVSLILDDMKYNDFYKYTLWYEPRELIYGDIRGMQMKKKKKTKYIYNDFMKKSTQLKKKLIKNDLKYNLKSKGLVFLYAMIDKYGSILNKAQKAKVQFLNSASSIRYYLYLNKVIFKSAKTYLDIMKRVLEELQTSTNTPLKFLVRGNYIENINNIARNDNMFYANLFVLTALSRRDPVKDYYNDKRKMLSATLAEKFANSASMLIPHKLRKLVVSMKKGLLKKKLLTSLAKVKLLQHIPAHMLENIASSIRFTTHTIATMQIIQNAKYMSKHNFAQYDSKGMLARQIFTKGGFAEYADNLMAKWFSKGFEEYKREQIENFKMENSIDSELKDSEREDENDASEESAKKKLQDLQLEEREKMKKENSLLFNQADKWDQFINKELVRALGLWLEFNDNPANAASFVYKVVEDSKHLLENNIDNNIIFSRTVKPTKQTAFRRFFNKILSLGNMLLRKPSFRVEHALWFGATIDIKKAFILLEKVSELHKMLNNQDESWLINEAFIEIVDHVVDLSTYKHVREPFGVARNPGMMAINPKYAELSHENRLRELQNSMCADHCSSVWKVISSFALHHLKNPDSLHTYESKFSKNSFGNKIDDKDFVHNFKMILGGDAVLHYFDNLLPKTMKKDLKAMKYGVSLTSAYSLKLTKIIFSQMQLPYLSQMFYMQAPYFGHFIGKWQKKRQQSRLKEIMSFMTLGSLSAYTLFSAMDITQQAKDIGAGPVASCFTTRMSPPQQICLNSVVNAALSTSTQSAMKCVFSV
modifications: bait human Fc-tagged dimer; N-glycosylation sequons mutated in Plasmodium baits
In experiment [3], B2 gave a binding score of 7.2.

B3: ADP167 (protein)
chain: EFKRKQKVEINSLQTNKNNDNIREEKIKGDVESQPDVDGDTCVIFSSSEGNSRNCWCPRGYILCSEEDVLDVQGKLNEIKNKHERSLVTPLWMKRLCDNSNDVGFKSMSVVIDYELAVLCKDGSNKDYADFEIIGASGYITGEEMIEEQKRNPWYVPRKCTVNNFYLCRKVENDNVNCAYTPWSDWSACKNNAQKRYRKVRRSNQNNENFCLWNDKIVPRNIMEQTRSC
modifications: bait human Fc-tagged dimer; N-glycosylation sequons mutated in Plasmodium baits
Consider B3, for which the binding score in experiment [4] is 19.1.

B4: ADP247 (protein)
chain: GIISGRINIAAEFHINIFVKDYFKKKKLTFVNFVSLCPKGFNIENNKCIPCPIGLYYSNSKSINQCIPCENYRKHSTTLYNSAKSKTECLCKPGYFLKDKRCVKCVAGFYKDQIGNFKCQGTCENTKMSIEVGAKNYEELKCTCKDGYFTEKKKKECIPCPFGNYCIYNPKVKYKADIIRCKNNKLTLHRGSKSPNDCLCSQGYYHDYKMDECELCNYDQYKSHISNDPCVPFISKSLVNQEYLINEPYFQYTNIYIKQTSNIIFAPKKGSKMFHEATLCETGYSYSMNKAICSICRYNNYCLGLDHSSIICPKNSITIKLKSVSALDCLCIKGYGRIIINTNQAFTISCIPCPYNTFQPHHSYGKCIPCPPHTFTKITGATSITECIPKMGYYNIAFEYIYEYSKQQMLNSIPHFIQYYHYFLKNQYEHFA
modifications: bait human Fc-tagged dimer; N-glycosylation sequons mutated in Plasmodium baits
For the molecule B4, the binding score was 5.26 in experiment [5], 5.73 in experiment [6], 5.45 in experiment [7] and 5.78 in experiment [8].
